PMC11255334, “Acetyl-CoA synthetase activity is enzymatically regulated by lysine acetylation using acetyl-CoA or acetyl-phosphate as donor molecule” (Nature Communications, 2024)
Substitutions are numbered along the chain they refer to. In names and notes the source's numbering stands.

B1: AcuA W140A (enzyme, Bacillus subtilis, UniProt P39065 1-210, looked up)
chain: MEHHKTYHSANIKTATGSLLIEGPVSPEDLAGYEFHKDLTAFRPPREQHEALVDIAGLPEGRIIIARDGRTIVGYVTYLYPDPLERWSEGNMEDLIELGAIEVAPDYRGCAVGKTLLTVSMMDEQMENYIVMTTEYYWHADLKGMKKDVWEYRKIMEKMMNAGGLVWFATDEPEISSHPANCLMARIGKNVSQESIEQFDRLRFYHRYMY
notes: AcuA, Bacillus subtilis, UniProt P39065, with W140A
B2: AcuA W140F (enzyme, Bacillus subtilis, UniProt P39065 1-210, looked up)
chain: B1 chain with A140F
notes: AcuA, Bacillus subtilis, UniProt P39065, with W140F
B3: AcuA E97Q/E135Q (enzyme, Bacillus subtilis, UniProt P39065 1-210, looked up)
chain: B1 chain with E97Q, E135Q, A140W
notes: AcuA, Bacillus subtilis, UniProt P39065, with E97Q and E135Q; also called double mutant AcuA E97Q/E135Q
B4: Bacillus subtilis AMP-forming acetyl-CoA synthetase AcsA (enzyme, UniProt P39062 1-572, looked up)
chain: MNLKALPAIEGDHNLKNYEETYRHFDWAEAEKHFSWHETGKLNAAYEAIDRHAESFRKNKVALYYKDAKRDEKYTFKEMKEESNRAGNVLRRYGNVEKGDRVFIFMPRSPELYFIMLGAIKIGAIAGPLFEAFMEGAVKDRLENSEAKVVVTTPELLERIPVDKLPHLQHVFVVGGEAESGTNIINYDEAAKQESTRLDIEWMDKKDGFLLHYTSGSTGTPKGVLHVHEAMIQQYQTGKWVLDLKEEDIYWCTADPGWVTGTVYGIFAPWLNGATNVIVGGRFSPESWYGTIEQLGVNVWYSAPTAFRMLMGAGDEMAAKYDLTSLRHVLSVGEPLNPEVIRWGHKVFNKRIHDTWWMTETGSQLICNYPCMDIKPGSMGKPIPGVEAAIVDNQGNELPPYRMGNLAIKKGWPSMMHTIWNNPEKYESYFMPGGWYVSGDSAYMDEEGYFWFQGRVDDVIMTSGERVGPFEVESKLVEHPAIAEAGVIGKPDPVRGEIIKAFIALREGFEPSDKLKEEIRLFVKQGLAAHAAPREIEFKDKLPKTRSGKIMRRVLKAWELNLPAGDLSTMED
notes: AMP-forming acetyl-CoA synthetase AcsA, Bacillus subtilis, UniProt P39062; synthetic gene codon optimized for E. coli; also called AcsA wildtype; non-acetylated AcsA; source: E. coli BL21 (DE3), pET45b(+), purified (HisTrap FF, Ni2+)
B5: K549-acetylated Bacillus subtilis AcsA (enzyme, UniProt P39062 1-572, looked up)
chain: B4 chain
modifications: acetyl-lysine at K549
notes: AMP-forming acetyl-CoA synthetase AcsA, Bacillus subtilis, UniProt P39062, acetylated at K549 by AcuA; Formed in the sample from m1 and m2 before the SEC run; K549 is the major acceptor site by the K549R control; also called AcsA AcK549; acetylated AcsA; source: E. coli BL21 (DE3), purified; acetylated in vitro by AcuA with acetyl-CoA, or with AcP and CoA

Tests used:
AcsA•AcuA complex = molecular target: T1, AcsA•AcuA complex (Bacillus subtilis, UniProt P39065); assay: lysine acetylation of AcsA K549, anti-AcK immunoblot and SEC; format: biochemical
T1 construct: both N-terminally His6-tagged, E. coli BL21 (DE3); AcuA 25,484 g/mol, monomer alone; apparent heterotetramer; AcsA K549 is the acetyl acceptor; with Acetyl-coenzyme A synthetase (AMP-forming)
T1 sequence (P39065 whole entry, one chain of several): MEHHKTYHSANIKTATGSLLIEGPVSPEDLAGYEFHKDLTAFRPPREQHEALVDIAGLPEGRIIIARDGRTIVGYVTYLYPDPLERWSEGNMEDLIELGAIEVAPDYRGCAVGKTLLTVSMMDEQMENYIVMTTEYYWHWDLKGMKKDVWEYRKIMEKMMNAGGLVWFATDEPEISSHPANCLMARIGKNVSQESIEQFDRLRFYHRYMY

[1] = molecular target: B4; assay: SEC; analytical SEC of equimolar AcsA and AcuA (wild type or mutants), incubated 30 min at room temperature, Superdex 200 10/300 GL, 50 mM Tris/HCl pH 8, 50 mM KCl, 2 mM β-mercaptoethanol; 100 µl of 50–100 µM; without ligand or with a tenfold molar excess of CoA or AcP alone; conditions: both partners purified
[2] = molecular target: the molecule itself; assay: SEC; analytical SEC of the single proteins, Superdex 200 10/300 GL, 50 mM Tris/HCl pH 8, 50 mM KCl, 2 mM β-mercaptoethanol; 100 µl of 50–100 µM injected; MW from a calibration curve
[3] = molecular target: the molecule itself; assay: SEC; analytical SEC of the preformed equimolar AcsA•AcuA complex pretreated with a tenfold molar excess of acetyl-CoA (excess also varied), 30 min at room temperature; fractions checked by anti-AcK immunoblot and Ponceau S

Molecule: CC(=O)SCCNC(=O)CCNC(=O)[C@H](O)C(C)(C)COP(=O)(O)OP(=O)(O)OC[C@H]1O[C@@H](n2cnc3c(N)ncnc32)[C@H](O)[C@@H]1OP(=O)(O)O [acetyl-CoA]
lysine acetylation of AcsA K549, anti-AcK immunoblot and SEC (AcsA•AcuA complex; 200 µM acetyl-CoA, AcuA 5 µM, AcsA 20 µM, acetyltransferase activity): addition of acetyl-CoA to AcsA and AcuA resulted in a strong acetylation of AcsA

Molecule: CC(=O)OP(=O)(O)O [AcP]
lysine acetylation of AcsA K549, anti-AcK immunoblot and SEC (AcsA•AcuA complex; intrinsic phosphotransacetylase activity, AcP with CoA as needed co-substrate, 37 °C): upon addition of CoA and AcP, AcsA was strongly acetylated

Molecule: B1
binding result [1]: binds

Molecule: B2
binding result [1]: binds

Molecule: B3
binding result [1]: binds

Molecule: B4
stoichiometry N [2]: 2

Molecule: B5
stoichiometry N [3]: 2
